Measured values from the supplement of paper PMC10126150.
± gives the standard deviation of the averaged measurements.

test system: ATP; test: switch fluorescence ratio, 500 uM ATP over buffer (Cy3 cluster intensity, sum of 5 cycles each) (fold (ratio)); higher = stronger signal-on switching upon ATP binding; sequences stand for … in TCGTCGGCAGCGTCAGATGTGTATAAGAGACAGTTTTTTTTTTTTTTTTTTTTTTTTT…TC; details: aptamer strand: ATP DNA aptamer (quencher-CACCTGGGGGAGTATTGCGGAGGAAGG + anchor), 100 nM annealed; ATP concentration: 500 uM
Outline: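 Between each of five buffer/ATP cycles, the flow-cell was stripped with NaOH and re-annealed. Each cycle imaged Cy3-labelled switching-strand clusters, annealed to 100 nM quencher-labelled ATP aptamer on a modified Illumina MiSeq flow-cell, first in selection buffer and then after 15 min with 500 uM ATP at 22 °C. The fluorescence ratio is summed target-cycle over summed buffer-cycle Cy3 intensity per cluster, averaged per switch-domain sequence, with clusters outside 100-1000 RFU excluded.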
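Further: ATP exposure 15 min at 22 °C before imaging.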

Sequence	switch fluorescence ratio
TACTCTGGTG	1.43 ± 0.019
CTATGGTATC	1.02 ± 0.015
CGGCGTACTG	1.03 ± 0.059
CAAAATTTCG	1.016 ± 0.0015
GGTTAGTACA	1.01 ± 0.041
CTATTAGGGA	0.9728 ± 0.0092
GTTTGCGCAG	1.02 ± 0.018
GGTAGTGCGT	0.968 ± 0.043
GCCGGCAATT	1.01 ± 0.015
GTGGAGTAAG	1.01 ± 0.023
GGAATAGATG	1.026 ± 0.0015
ATTTGGTTAG	0.987 ± 0.025
TGTTAGTTGG	1.004 ± 0.0038
GTAATCGATT	1.07 ± 0.022
AGCAGAGGAC	0.971 ± 0.058
CGTCACGGGA	1.05 ± 0.036
GCCCTACAAC	0.998 ± 0.012
AACGTTTTCT	0.991 ± 0.012
TTTATATAAT	0.984 ± 0.038
ATTCGTATAT	0.969 ± 0.051
CTTTCTAGCG	0.995 ± 0.032
GTGGAAAGTA	0.997 ± 0.011
GAAGCTTGGG	1.04 ± 0.025
ATGACTTTGG	0.977 ± 0.028
CGTTTGTGGG	0.984 ± 0.034

Sequence	switch fluorescence ratio
TATCTCGGGA	0.988 ± 0.02
TCGGCGAAGG	1.01 ± 0.082
TTAGATCGGG	0.989 ± 0.011
GTTTTCTTCA	1.04 ± 0.018
ATTGGTAGGC	1.03 ± 0.023
ACCAATATAT	0.996 ± 0.033
TATGTCTCTT	1.02 ± 0.021
TTTGAATGGA	1 ± 0.012
TAATAAGTA	0.97 ± 0.012
GGGGACGTCA	0.998 ± 0.012
TGATATTGG	0.971 ± 0.045
AGTGTACCGG	0.997 ± 0.01
GTAGTTGTGG	1.01 ± 0.014
ATAGAGTGGG	0.966 ± 0.019
GTTATTATAG	0.992 ± 0.005
CGCCCAAAGG	1.13 ± 0.11
ATGTAATGAT	1.02 ± 0.018
GGTTTCGTTG	1 ± 0.046
TTAAGGAGTG	0.95 ± 0.0099
TGATAGTTGA	1.005 ± 0.0026
GGGGGTGTTG	1 ± 0.04
TGCGCGCTGG	1 ± 0.041
GGGTTGTGGT	1.01 ± 0.026
TTTTCAGGAG	1.03 ± 0.016
CATCACATGT	1 ± 0.018

Sequence	switch fluorescence ratio
ACATACCGTG	1.21 ± 0.038
TTTGGGCGAA	1.002 ± 0.0068
GGATTTTTCA	0.985 ± 0.013
AGTGGTGGCT	1.04 ± 0.018
TTAAAGTCGT	1.01 ± 0.026
TATCACGGCT	0.969 ± 0.0099
ATGAGATAGG	0.982 ± 0.045
GCGTGGGGCG	0.996 ± 0.011
TGGAGGGATT	1.02 ± 0.013
AAGTGAATAA	0.998 ± 0.017
TCAGTACATG	0.992 ± 0.02
CTAGGGGCGT	0.979 ± 0.019
GATCTGAACT	1 ± 0.059
GGTTTGCACG	0.992 ± 0.042
TCCAACGTAT	1.493 ± 0.0064
TATGTTTATT	1.03 ± 0.011
CGGGGGTCCG	0.926 ± 0.087
CGCATTTTGT	1.06 ± 0.0043
TCCATTGTGT	0.992 ± 0.029
GTGATTGGAG	0.966 ± 0.025
TTATCGTATT	0.9872 ± 0.0053
CGGCTGACTG	1.05 ± 0.019
TAGGGGGATG	0.997 ± 0.028
GGGGTCAAGC	1.01 ± 0.03
TTCATTATGG	1.004 ± 0.0049

Sequence	switch fluorescence ratio
CTGGGTTGTT	1.0204 ± 0.00077
GTATAAGTTT	0.998 ± 0.017
GAGTAGGGGG	0.993 ± 0.033
AGAAGTCGGA	1 ± 0.011
CTAAGAGGCG	0.988 ± 0.024
TAGGGGCAGG	1.07 ± 0.022
TTGCCTAACT	1.04 ± 0.028
AATAATTCTG	0.984 ± 0.053
TTGGATTTCA	0.972 ± 0.045
ACGGAATTTG	1.04 ± 0.019
TGGTGGCTTA	0.9827 ± 0.0025
GCCGCAGCTA	3.05 ± 0.15
GATTGTGCTG	0.988 ± 0.01
TTAAAGCAGT	1.56 ± 0.47
GCGTTGAGCT	0.987 ± 0.023
GGGCTTTTTT	0.98 ± 0.018
TTATGTTTCT	0.972 ± 0.026
GGCAGGTTGG	0.952 ± 0.014
GCGGTAGGG	1.02 ± 0.0055
GTTCCGGTTT	1.01 ± 0.034
CGGATGTGGT	0.973 ± 0.016
TAACCAATTT	1.01 ± 0.018
GGGAAAGCGT	1.03 ± 0.035
TGAAAAAACA	1.02 ± 0.019
GCGTGTTGTG	1.02 ± 0.018

Sequence	switch fluorescence ratio
TTGAGGTTTG	1.03 ± 0.019
TCATAAGTTG	0.9957 ± 0.0042
TTTTATAGAC	1.04 ± 0.026
GTTGTAGGGT	0.976 ± 0.022
TTTACGAGGT	1.01 ± 0.037
GGAACTGGAG	1.07 ± 0.031
CAAAAAAAAA	1 ± 0.017
AGGTTTTCGT	1.028 ± 0.0039
AAAAGGGCGG	1.01 ± 0.023
TCCTCATTTG	1.005 ± 0.0078
ACCGTTTCGT	0.94 ± 0.029
TATCTGGGTG	1.06 ± 0.029
CGTGCAAATT	0.985 ± 0.026
ATGCTGTTGG	1 ± 0.026
TTAGGGGGG	1.01 ± 0.026
ACATTCCAGT	1.14 ± 0.15
TGGTTAGAAA	1.04 ± 0.017
TCGTAACACT	1.16 ± 0.0057
TTTACGAGTA	1.01 ± 0.012
CCTTTGCCGC	1.58 ± 0.54
AAGTCTATAA	1.02 ± 0.046
GTTGGGTTGG	1 ± 0.033
CACATACATT	1.24 ± 0.067
GGGTAGGTG	1.13 ± 0.039
AAATTTTAAT	0.979 ± 0.04

Sequence	switch fluorescence ratio
CAGGGGGGAC	1 ± 0.022
AGTTGAACCC	0.9872 ± 0.0016
ACCCGCCAGC	3.96 ± 1.6
GGTAACAGTG	1.07 ± 0.085
ACCAGTAGAC	1.038 ± 0.0074
TTGTACGCTA	1.82 ± 0.73
AGTTTCCTAG	0.971 ± 0.022
GGTCGTAGCC	0.9719 ± 0.0084
ATGGTTGTCA	1.03 ± 0.015
AGGGATCGTC	0.987 ± 0.014
AGTGTTGTGG	0.9904 ± 0.0021
TGATGGGTTG	1 ± 0.03
TTCCGGGAAA	0.968 ± 0.031
TTTGTGCCGG	1.012 ± 0.007
GGTGGCAAGG	0.9912 ± 0.0094
GGTCATTTAG	0.994 ± 0.031
ACATGCTACG	1.05 ± 0.034
TTCTTTTAAT	0.98998 ± 0.0005
CGCCTAAGTT	1 ± 0.036
AGTTGGGATC	1.036 ± 0.008
TAGGAAGGCG	1.01 ± 0.047
GAGTTTAGCG	0.982 ± 0.025
TTTGGGAGCA	0.9882 ± 0.0022
GGAGAAAGCG	0.976 ± 0.016
CAGAATTAA	1 ± 0.037

Sequence	switch fluorescence ratio
GGGGATAGAT	0.982 ± 0.027
CTAGCCCAGC	1.02 ± 0.026
AGGGGAGGTG	1.09 ± 0.05
TGGGTACTTT	0.994 ± 0.016
TCCATTAGGA	0.9978 ± 0.0082
GGTTGGTTGT	1.15 ± 0.21
TAATTGGCAA	1.004 ± 0.0017
ACAATCGTTT	1.01 ± 0.014
TAGATCTTAC	1.05 ± 0.046
ATATTGGGTT	0.9708 ± 0.0074
GCGTCGAAGG	0.981 ± 0.047
TTGGCCGATG	1.001 ± 0.0098
AAGGACGCCA	1.05 ± 0.028
AGGGCTTTGT	1 ± 0.014
TAGAGGATCA	1 ± 0.056
CGAAATGCTG	1.09 ± 0.016
GGGGGAGACT	1 ± 0.051
TGTTAAAGTT	0.9908 ± 0.0045
ATACATCTAG	0.996 ± 0.044
GAGAGTGGGC	1 ± 0.043
CATATTCGGC	0.988 ± 0.061
GAACCTGGAT	1.16 ± 0.038
AATATGAGTA	0.993 ± 0.038
GGAATGGTAG	1.01 ± 0.099
GATTTATGAC	1.02 ± 0.038

Sequence	switch fluorescence ratio
TGTGTATGGG	1.19 ± 0.28
TCCAGGTTAG	1.17 ± 0.03
AAAAGAACGC	1.05 ± 0.097
ACTAGGCAAG	1.13 ± 0.018
GGTTTATTAT	1.02 ± 0.017
GGGGGCAGCC	1.05 ± 0.083
TTTAATAAAG	1.02 ± 0.041
TGTTACTTAT	1.05 ± 0.016
ACTGTCGCCA	1.023 ± 0.0059
AGAATTTGTT	1 ± 0.024
GACCCGATTA	1.02 ± 0.034
GTTGGAGCCT	0.995 ± 0.065
GGTTTCCGGG	1.01 ± 0.035
TTGTAGTCTC	1.03 ± 0.11
AGTAAGCGAC	1.063 ± 0.0014
TTCGGGGTTA	1.01 ± 0.018
TTTATACCTA	1.03 ± 0.023
GCTAGTGGGG	0.999 ± 0.018
AGGTACGTGG	0.996 ± 0.059
CCAGGTAACA	1.03 ± 0.012
GATGTCTAGT	0.983 ± 0.015
AGACGGGGGC	0.978 ± 0.12
TATGTTAGTC	0.988 ± 0.054
TGATATTTCT	1 ± 0.011
TTTTTGAATC	0.983 ± 0.017
